Experimental data taken from patent US20180022822A1 (MABIMMUNE DIAGNOSTICS, published 2018).
Where a chain is given by its changes, count along the chain named. Blank lines part the entries; values can stand above or below the binder they belong to.

Columns and labels:
[1] = target: T1, cFAP (mixture of three FAP peptides) (human); test: direct ELISA: coated mixture of three FAP peptides (cFAP)
T1 construct: A mixture of three separate peptides coated together, not a complex; The three chains are the three components; also called directly coated FAP peptides mixture
T1 peptide 1: HYIKDTVENAIQITS
T1 peptide 2: GWSYGGYVSSLALAS
T1 peptide 3: QVDFQAMWYSDQNHGL

[2] = target: T2, recombinant human Fibroblast Activation Protein (FAP) with N-terminus 6x histidine tag (human, UniProt Q12884 26-760); test: capture ELISA: His-tagged rFAP captured by coated anti-His antibody (sFAP)
T2 construct: Bought protein; also called rFAP; rhFAP
T2 sequence: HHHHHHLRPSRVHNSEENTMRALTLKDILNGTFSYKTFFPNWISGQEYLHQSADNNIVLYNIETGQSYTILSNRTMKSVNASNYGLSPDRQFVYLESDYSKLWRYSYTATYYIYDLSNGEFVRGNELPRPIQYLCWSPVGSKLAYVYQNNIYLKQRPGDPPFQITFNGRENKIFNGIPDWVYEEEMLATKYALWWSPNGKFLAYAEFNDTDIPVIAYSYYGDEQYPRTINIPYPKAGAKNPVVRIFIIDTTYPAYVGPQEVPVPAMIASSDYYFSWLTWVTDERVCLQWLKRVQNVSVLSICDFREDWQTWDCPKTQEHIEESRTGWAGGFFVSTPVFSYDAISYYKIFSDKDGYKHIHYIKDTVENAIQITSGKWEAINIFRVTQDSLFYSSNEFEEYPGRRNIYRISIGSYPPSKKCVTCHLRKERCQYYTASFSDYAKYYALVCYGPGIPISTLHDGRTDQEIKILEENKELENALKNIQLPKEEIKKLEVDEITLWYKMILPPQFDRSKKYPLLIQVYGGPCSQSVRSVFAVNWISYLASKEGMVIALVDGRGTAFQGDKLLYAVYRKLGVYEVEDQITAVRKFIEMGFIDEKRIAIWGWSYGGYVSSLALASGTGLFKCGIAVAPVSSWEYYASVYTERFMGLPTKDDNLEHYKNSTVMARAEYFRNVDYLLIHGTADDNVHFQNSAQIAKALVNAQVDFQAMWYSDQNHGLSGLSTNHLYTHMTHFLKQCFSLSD
Protocol: (§1) For the capture ELISA, the microplates were coated with mouse anti-His monoclonal antibody (Clontech) diluted to a concentration of 3 μg/ml in PBS, the plates were then blocked, FAP or BSA were diluted to a concentration of 2 μg/ml in PBS and added to the plates to be captured. The binding efficiency of the antibodies was then tested.
The EC₅₀ values were estimated by a non-linear regression using GraphPad Prism (San Diego, USA) software.

[3] = target: T2, recombinant human Fibroblast Activation …; test: direct ELISA: rFAP directly coated (FAP)
[4] = target: T3, bovine serum albumin (BSA) (bovine, UniProt P02769 25-607); test: direct ELISA: BSA coated directly on the plate [continued) D]
T3 construct: Negative control antigen in the ELISAs
T3 sequence (P02769 25-607 limits assumed): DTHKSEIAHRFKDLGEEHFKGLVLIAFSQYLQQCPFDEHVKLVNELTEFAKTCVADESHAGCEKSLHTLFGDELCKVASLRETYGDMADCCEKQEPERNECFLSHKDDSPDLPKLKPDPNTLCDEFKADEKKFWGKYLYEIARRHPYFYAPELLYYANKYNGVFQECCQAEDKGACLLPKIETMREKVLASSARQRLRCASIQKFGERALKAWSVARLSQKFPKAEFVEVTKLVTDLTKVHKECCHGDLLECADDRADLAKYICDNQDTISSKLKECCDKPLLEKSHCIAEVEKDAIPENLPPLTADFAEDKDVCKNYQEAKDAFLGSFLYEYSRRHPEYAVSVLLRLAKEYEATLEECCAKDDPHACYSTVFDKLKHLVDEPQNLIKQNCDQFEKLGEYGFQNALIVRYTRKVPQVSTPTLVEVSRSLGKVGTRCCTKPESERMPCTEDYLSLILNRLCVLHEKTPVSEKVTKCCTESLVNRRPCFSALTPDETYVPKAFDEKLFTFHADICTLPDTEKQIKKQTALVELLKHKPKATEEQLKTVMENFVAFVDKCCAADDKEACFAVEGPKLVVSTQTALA

[5] = target: T2, recombinant human Fibroblast Activation …; test: capture ELISA: His-tagged rFAP captured by coated anti-His antibody (anti-His+rFAP), antibody titrated, OD 450 nm; the curve reaches no upper plateau [continued) G]
Protocol: as §1

[6] = target: T3, bovine serum albumin (BSA); test: direct ELISA: BSA coated directly on the plate [continued) H]
[7] = target: T2, recombinant human Fibroblast Activation …; test: direct ELISA: rFAP coated directly on the plate, antibody titrated, OD 450 nm; the curve reaches no upper plateau [continued) H]
[8] = target: T2, recombinant human Fibroblast Activation …; test: direct ELISA: rFAP coated directly on the plate, antibody titrated, OD 450 nm [continued) J]
[9] = target: T2, recombinant human Fibroblast Activation …; test: capture ELISA: His-tagged rFAP captured by coated anti-His antibody (anti-His+rFAP), antibody titrated, OD 450 nm [continued) I]
Protocol: as §1

[10] = target: T2, recombinant human Fibroblast Activation …; test: direct ELISA: rFAP coated directly on the plate, antibody titrated, OD 450 nm [continued) F]
[11] = target: T2, recombinant human Fibroblast Activation …; test: capture ELISA: His-tagged rFAP captured by coated anti-His antibody (anti-His+rFAP), antibody titrated, OD 450 nm [continued) E]
Protocol: as §1

[12] = target: T3, bovine serum albumin (BSA); test: direct ELISA: BSA coated directly on the plate [continued) F]
[13] = target: T4, FAP peptide 126 (501-IQLPKEEIKKLEVDE-515) (human); test: pepscan, spotted 15-mer peptides
T4 construct: Linear 15-mer spotted on a nitrocellulose membrane
T4 peptide: IQLPKEEIKKLEVDE
Protocol: (§2) Binding capacity of the antibodies was tested on these peptides spotted onto a nitrocellulose membrane (JPT Peptide Technologies, Berlin, Germany) and using HRP-conjugated donkey anti-human IgG secondary antibody (Jackson immunoResearch, Newmarket, UK) followed by detection of HRP activity (FIGS. 4A and C). In brief, epitope mapping was performed using scans of overlapping peptides. The entire sequences of FAP were synthesized as a total of 188 linear 15-mer peptides with an 11 amino acid overlap between individual peptides. Those peptides were spotted onto nitrocellulose membranes (JPT Peptide Technologies, Berlin, Germany). The membrane was activated for 5 min in methanol and washed in TBS for 10 min at RT. Non-specific binding sites were blocked for 2 h at RT with Roti®-Block (Carl Roth GmbH+Co. KG, Karlsruhe, Germany). Human antibodies (1 μg/ml) were incubated in Roti®-Block for 3 h at RT. Binding of primary antibody was determined using HRP-conjugated donkey anti-human IgG secondary antibody. Blots were developed and evaluated using ECL and ImageQuant 350 detection (GE Healthcare, Otelfingen, Switzerland).

[14] = target: T5, FAP peptide 125 (497-ALKNIQLPKEEIKKL-511) (human); test: pepscan, spotted 15-mer peptides
T5 construct: Linear 15-mer spotted on a nitrocellulose membrane
T5 peptide: ALKNIQLPKEEIKKL
Protocol: as §2

[15] = target: T2, recombinant human Fibroblast Activation …; test: direct ELISA: rFAP directly coated

B1: NI-206.27E8 (antibody, V domains shown)
VH: EVQLVESGGGLVEPGGSLRLSCAASGFTFSDAWMNWVRQAPGKGLEWVGRIKTKSDGGTTDYAAPVRGRFSISRDDSKNTLFLEMNSLKTEDTAIYYCFITVIVVSSESPLDHWGQGTLVTVSS
VL: SYELTQPPSVSVSPGQTARITCSGDELPKQYAYWYQQKPGQAPVLVIYKDRQRPSGIPERFSGSSSGTTVTLTISGVQAEDEADYYCQSAYSINTYVIFGGGTKLTVL
notes: Recombinant complete human IgG1; Cy5-labelled in flow cytometry
binding result [1]: no binding
EC50 [2]: 3.36 nM
EC50 [3]: 0.33 nM

B2: NI-206.12G4 (antibody, V domains shown)
VH: EVQLVESGGGLVKPGGSLRLSCAASGFTFSDYYMSWIRQAPGKGLEWISYISSGSSYTNYADSVKGRFTISRDNAKKSVYLEVNGLTVEDTAVYYCARVRYGDREMATIGGFDFWGQGTLVTVSS
VL: B1 VL with E26A, K38S, R51S, Q52E, Y91D, I93G, N94G, Y96S, V97R
notes: as for B1
binding result [1]: no binding
EC50 [3]: 1.4 nM

B3: NI-206.59B4 (antibody, V domains shown)
VH: QVQLVQSGAEVKKPGASVKVSCKTSGYTFTDYYIHWVRQAPGQGLEWMGWINPNRGGTNYAQKFQGRVTMTRDTSIATAYMELSRLRSDDTAVYYCATASLKIAAVGTFDCWGQGTLVTVSS
VL: SYELTQPPSVSVSPGQTARITCSGDALSKQYAFWFQQKPGQAPILVIYQDTKRPSGIPGRFSGSSSGTTVTLTISGAQADDEADYYCQSADSSGTYVFGTGTKVTVL
notes: as for B1
binding result [1]: no binding
EC50 [2]: 0.044 nM
binding result [4]: no binding
EC50 [3]: 0.096 nM

B4: NI-206.17A6 (antibody, V domains shown)
VH: QVQLQESGPGLVRSTETLSLTCLVSGDSINSHYWSWLRQSPGRGLEWIGYIYYTGPTNYNPSLKSRVSISLGTSKDQFSLKLSSVTAADTARYYCARNKVFWRGSDFYYYMDVWGKGTTVTVSS
VL: EIVLTQSPGTLSLSLGERATLSCRASQSLANNYLAWYQQKPGQAPRLLMYDASTRATGIPDRFSGSGSGTDFTLTISRLEPEDFAVYYCQQFVTSHHMYIFGQGTKVEIK
notes: Recombinant complete human IgG1 with a kappa light chain
binding result [1]: no binding
EC50 [2]: 50.2 nM
EC50 [3]: 10.5 nM

B8: NI-206.22F7 (antibody, V domains shown)
VH: EVQLVETGGGVVQPGRSLRLSCAASGFSFSTHGMYWVRQPPGKGLEWVAVISYDGSDKKYADSVKGRFTISRDNSKNTVYLEMSSVRAEDTALYYCFCRRDAFDLWGQGTMVTVSS
VL: SYVLTQPPSVSVSPGQTARITCSGDALPKKYAYWYQQKSGQAPVLVIYEDTKRPSGIPERFSGSSSGTMATLTISGAQVEDEADYYCYSTDSSGNYWVFGGGTEVTVL
notes: Recombinant complete human IgG1
EC50 [1]: 0.12 nM
binding result [15]: no binding

More lines, now with the values ahead:

binding result [1]: no binding
EC50 [5]: 118 nM
EC50 [2]: 1.33 nM
EC50 [3]: 2.9 nM
binding result [6]: no binding
EC50 [7]: 86.5 nM
B5: NI-206.20A8 (antibody, V domains shown)
VH: EVQLVESGGGLVQPGGSLKLSCAGSGLDLSASAVHWVRQASGKGLEWIGRIRSKPNHYATTYLASVRGRFILSRDDSENTAYLQMNSLRTEDTAVYYCRIGILNSDHWGRGTLVTVSS
VL: QSVLTQPPSASGTPGQTVIISCSGSSSNLGRKTLNWYQQLPGAAPKLLIFKNDQRASGVPDRFSASKSGTSASLTISGLQSDDEADYYCGTWDDSLDNWVFGGGTKVTVL
notes: as for B8

binding result [1]: no binding
EC50 [2]: 118 nM
EC50 [3]: 86.5 nM
EC50 [8]: 3.54 nM
EC50 [9]: 0.272 nM
B6: NI-206.6D3 (antibody, V domains shown)
VH: EVQLVESGGGLVKPGESLRLSCAASGFTFSKAWMNWVRQGPGKGLEWVGRVKSKTDGGTTDYAAPVKGRFTISRDDSKDTVFLQMNSLKTEDTAVYYCSIQFIVVGDRGRDDQYMDVWGKGTTVTVSS
VL: SYVLTQPPSVSVSPGQTARITCSGDALPKQYAFWYQQKPGQAPVIMIYKDNQRPSGIPERFSGSSSGTTVTLTISGVQTEDEADYYCQSADSTNTHVVFGGGTKLTVL
notes: as for B1

binding result [1]: no binding
EC50 [10]: 2.9 nM
EC50 [11]: 1.33 nM
EC50 [2]: 0.272 nM
binding result [12]: no binding
EC50 [3]: 3.54 nM
binding result [13]: binds
binding result [14]: binds
B7: NI-206.18H2 (antibody, V domains shown)
VH: QVQLQESGPRLVKPSETLSLTCTVSGYSISNGYYWGWIRQPPGQGLEWIASVWHSGNTYHNPSLKSRVTILVDTLKNQFSLNLKSVTAADTALYYCARSYTRNDVGAFETWGQGTMVTVSS
VL: SYELTQPPSVSVSPGQTARIACSGDELPKRYAYWYQQKSGQAPVLVMYEDTKRPSGIPERLSGSSSGTVTTLTISGAQVEDEADYYCYSTAPSGNHTFVFGTGTRVTVL
notes: as for B1
